Experimental findings from PMC2706497 are described below.

Substrate in the data set: NCCCCc1ccccc1
As to the kind of experiment: steady-state kinetics. Type of data set: biochemical, Homo sapiens. The conditions noted are these: FAD (covalent).

B1: MAO-B (Homo sapiens) (protein)
chain: SNKCDVVVVGGGISGMAAAKLLHDSGLNVVVLEARDRVGGRTYTLRNQKVKYVDLGGSYVGPTQNRILRLAKELGLETYKVNEVERLIHHVKGKSYPFRGPFPPVWNPITYLDHNNFWRTMDDMGREIPSDAPWKAPLAEEWDNMTMKELLDKLCWTESAKQLATLFVNLCVTAETHEVSALWFLWYVKQCGGTTRIISTTNGGQERKFVGGSGQVSERIMDLLGDRVKLERPVIYIDQTRENVLVETLNHEMYEAKYVISAIPPTLGMKIHFNPPLPMMRNQMITRVPLGSVIKCIVYYKEPFWRKKDYCGTMIIDGEEAPVAYTLDDTKPEGNYAAIMGFILAHKARKLARLTKEERLKKLCELYAKVLGSLEALEPVHYEEKNWCEEQYSGGCYTTYFPPGILTQYGRVLRQPVDRIYFAGTETATHWSGYMEGAVEAGERAAREILHAMGKIPEDEIWQSEPESVDVPAQPITTTFLERHLPSVPGLLRLIGLTTIFSATALGFLAHKRGLLVRV
Broadly, the Km is the concentration of substrate that gives half-maximal velocity. Take B1: the Km was determined as 19 ± 3 µM.
